Results taken from publication PMC9758175.

Tests used:
[1] = target: WspR-His (Lysobacter enzymogenes OH11)
[2] = target: WspR-His (Lysobacter enzymogenes OH11); experiment: MST; as the WspR-RpfG MST assay, with 10 μM DSF added
[3] = target: WspR-His (Lysobacter enzymogenes OH11); experiment: MST; as the WspR-RpfG MST assay, with 10 μM c-di-GMP added
[4] = target: WspR-His (Lysobacter enzymogenes OH11); experiment: MST; 100 nM WspR-His labelled with RED-Tris-NTA, titrated with MBP-RpfG or its variant; 50 mM Tris pH 7.5, 150 mM NaCl, 10 mM MgCl2, 0.05% Tween 20; 25 °C; Monolith NT.115
[5] = target: WspR-His~P (Lysobacter enzymogenes OH11); experiment: as above
Sequence of WspR-His~P (Lysobacter enzymogenes OH11) (main, as listed by the source): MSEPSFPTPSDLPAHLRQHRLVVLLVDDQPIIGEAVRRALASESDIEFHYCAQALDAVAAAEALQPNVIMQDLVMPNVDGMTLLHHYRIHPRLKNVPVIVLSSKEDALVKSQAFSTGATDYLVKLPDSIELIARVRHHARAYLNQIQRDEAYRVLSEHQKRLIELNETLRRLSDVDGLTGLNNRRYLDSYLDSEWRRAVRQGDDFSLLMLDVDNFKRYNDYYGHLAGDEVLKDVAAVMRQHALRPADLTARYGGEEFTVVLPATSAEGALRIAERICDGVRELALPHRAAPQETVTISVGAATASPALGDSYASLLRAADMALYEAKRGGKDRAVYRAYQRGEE

Sequence of WspR-His (Lysobacter enzymogenes OH11) (main, as listed by the source): as above

| Substance | reduction of c-di-GMP production by WspR-His from GTP (HPLC peak area) on addition of MBP-RpfG [1] | Kd [2] | Kd [3] | Kd [4] | Kd [5] | reduction of c-di-GMP production by WspR-His from GTP (HPLC peak area) on addition of MBP-RpfG^H190A [1] |
| --- | --- | --- | --- | --- | --- | --- |
| MBP-RpfG (enzyme) | 82% | 250 nM | 320 nM | 150 nM | 930 nM |  |
| MBP-RpfG^H190A (enzyme) |  |  |  | 200 nM | 560 nM | 34% |
| phosphorylated RpfG (RpfG~P) (enzyme) |  |  |  | 240 nM |  |  |
